The values that follow come from publication PMC5014727 (Structure (London, England : 1993), 2016).

To fix the notation:
B2: chemically ligated sRAGE (extracellular soluble RAGE, VC1 ligated to C2) (domain or fragment, UniProt Q15109 23-342, looked up)
chain: AQNITARIGEPLVLKCKGAPKKPPQRLEWKLNTGRTEAWKVLSPQGGGPWDSVARVLPNGSLFLPAVGIQDEGIFRCQAMNRNGKETKSNYRVRVYQIPGKPEIVDSASELTAGVPNKVGTCVSEGSYPAGTLSWHLDGKPLVPNEKGVSVKEQTRRHPETGLFTLQSELMVTPARGGDPRPTFSCSFSPGLPRHRALRTAPIQPRVWEPGCSAEVQLVVEPEGGAVAPGGTVTLTCEVPAQPSPQIHWMKDGVPLPLPPSPVLILPEIGPQDQGTYSCVATHSSHGPQESRAVSISIIEPGEEGPTAGSVGGSGLGTLA

In one data set the target is sRAGE ECD (Homo sapiens) (UniProt Q15109). Conditions: cited from earlier work.
Data set [1] deals with full length RAGE fused with yellow fluorescence protein (human) (UniProt Q15109). Description: FRET or BRET.
Data set [2] addresses B2. In words: ELISA. (In an ELISA, binding on a coated surface is turned into a signal by an enzyme label.)
The data set “cross-linking” deals with the molecule itself. Description: cross-linking.
The data set “15N NMR relaxation” concerns the molecule itself. Description: 15N NMR relaxation.

Where “and” joins values, the source holds several entries; their conditions need not be identical. Equal entries are not always repeated.

One may read the Kd as the constant that tells how readily two partners part at equilibrium. In the case of sRAGE ECD (from UniProt Q15109), in the data set with sRAGE ECD (Homo sapiens), the Kd is 100 µM.

In data set [1], “ΔDAD-DIAPH1 fused with cyan fluorescent protein (from UniProt O60610 1-1272) (natural protein)” showed an FRET efficiency (with Ca2+-S100B) of 10% and an FRET efficiency (without Ca2+-S100B) of 8%.

B1: Ca2+-S100B dimer (ligand)
chain: MSELEKAMVALIDVFHQYSGREGDKHKLKKSELKELINNELSHFLEEIKEQEVVDKVMETLDNDGDGECDFQEFMAFVAMVTTACHEFFEHE
B1 returned a dissociation constant Kd in data set [2] of 0.49 ± 0.043 µM.

Broadly, the stoichiometry N is a count of units in the complex or per binding partner. Take B2: the “stoichiometry N” value in “cross-linking” is 2 and 3 and 4. The same molecule came in with a Kd in the data set “15N NMR relaxation” of 120 ± 12 µM.
